The values that follow come from patent publication US20070020743A1, “Undecaprenyl pyrophosphate synthase (upps)enzyme and methods of use” (priority 2001, published 2007).

Data set [1] has as its system C=C(C)CCO[P@@](=O)(O)OP(=O)(O)O. Put plainly: purified protein, by the assay type. The conditions noted are these: other: substrate Km of S. pneumoniae UPPS; pH optimum 7.5-8.0; pH 7.5; 25.0 °C.
The test system of data set [2] is CC(C)=CCC/C(C)=C/CC/C(C)=C/CO[P@@](=O)(O)OP(=O)(O)O. The data set is described as follows: purified protein, by the assay type. The conditions noted are these: other: substrate Km of S. pneumoniae UPPS; pH optimum 7.5-8.0; pH 7.5; 25.0 °C.
Method: The reaction was incubated at 25° C. for 25 min and stopped by addition of EDTA to 50 mM. The reaction was extracted with equal volume of 1-butanol and the radioactivity in the butanol phase was measured with a liquid scintillation counter (Shimizu, N., T. Koyama, and K. Ogura. (1998) J. Biol. Chem. 273:19476-19481).

Take “S. pneumoniae UPPS (Streptococcus pneumoniae TIGR4)”: the figures for the Michaelis-Menten constant (Km) in data set [1] and in data set [2] were 3.6 µM and 0.5 µM, respectively.
